The text below walks through data of paper PMC3784395, “Ectopic Expression of WUS in Hypocotyl Promotes Cell Division via GRP23 in Arabidopsis”.

Series [1] deals with T1, GST-WUS (WUSCHEL) (UniProt Q9SB92 1-292).
T1 sequence: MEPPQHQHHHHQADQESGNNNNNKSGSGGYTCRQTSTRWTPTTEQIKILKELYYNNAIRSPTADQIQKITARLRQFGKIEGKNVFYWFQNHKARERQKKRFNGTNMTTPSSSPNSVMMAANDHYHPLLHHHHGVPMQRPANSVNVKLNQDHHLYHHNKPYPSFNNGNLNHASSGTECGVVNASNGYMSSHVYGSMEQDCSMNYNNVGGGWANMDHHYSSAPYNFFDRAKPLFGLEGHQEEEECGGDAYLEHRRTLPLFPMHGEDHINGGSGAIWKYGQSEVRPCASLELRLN
Put plainly: competition; unlabeled mutant competitor up to 800x excess vs labeled N1; Lightshift Chemiluminescent EMSA kit (Pierce), per manufacturer; buffer, salt, pH and temperature not stated. The conditions noted are these: protein: recombinant; chain copies: 2; blunt.

Series [2] addresses T1, GST-WUS (WUSCHEL). Briefly: EMSA; Lightshift Chemiluminescent EMSA kit (Pierce), per manufacturer; buffer, salt, pH and temperature not stated. The conditions noted are these: protein: recombinant; chain copies: 2; label: 3' biotin on both strands (probe); blunt. A general note: In EMSA bound probe runs differently from free probe, usually more slowly.

B1: GRP23 promoter mutant (both TAAT to GGGG) (dsDNA)
DNA 1: CATATATCTTGGGGACTGTGGGGGATCTTTCTTCAAAAAC
DNA 2: GTTTTTGAAGAAAGATCCCCCACAGTCCCCAAGATATATG
Regarding B1, the binding result in series [1] is reported as “no binding”.

B2: GRP23 promoter probe wt (-748 to -709) (dsDNA)
DNA 1: CATATATCTTTAATACTGTTAATGATCTTTCTTCAAAAAC
DNA 2: GTTTTTGAAGAAAGATCATTAACAGTATTAAAGATATATG
In the case of B2, the binding result in series [2] is on record as “binds”.
